From article PMC10619557, “Crystal Structures of 6-Phosphogluconate Dehydrogenase from Corynebacterium glutamicum” (Journal of Microbiology and Biotechnology, 2023)

Experiments:
[1] = substrate: NC(=O)c1ccc[n+]([C@@H]2O[C@H](COP(=O)(O)OP(=O)(O)OC[C@H]3O[C@@H](n4cnc5c(N)ncnc54)[C@H](OP(=O)(O)O)[C@@H]3O)[C@@H](O)[C@H]2O)c1; test: purified protein; type: biochemical, Corynebacterium glutamicum; conditions: NADP 0.01-2 mM, 5 mM 6PG, 40 mM Tris-HCl pH 8.0, 20 °C, varied: cofactor
[2] = substrate: O=C(O)[C@H](O)[C@@H](O)[C@H](O)[C@H](O)COP(=O)(O)O; test: purified protein; type: biochemical, Corynebacterium glutamicum; conditions: 6PG 0.1-5 mM, 2 mM NADP, 40 mM Tris-HCl pH 8.0, 20 °C

B1: Cg6PGD (Corynebacterium glutamicum ATCC 13032) (protein)
chain: MTNGDNLAQIGVVGLAVMGSNLARNFARNGNTVAVYNRSTDKTDKLIADHGSEGNFIPSATVEEFVASLEKPRRAIIMVQAGNATDAVINQLADAMDEGDIIIDGGNALYTDTIRREKEISARGLHFVGAGISGGEEGALNGPSIMPGGPAKSYESLGPLLESIAANVDGTPCVTHIGPDGAGHFVKMVHNGIEYADMQVIGEAYHLLRYAAGMQPAEIAEVFKEWNAGDLDSYLIEITAEVLSQVDAETGKPLIDVIVDAAGQKGTGRWTVKAALDLGIATTGIGEAVFARALSGATSQRAAAQGNLPAGVLTDLEALGVDKAQFVEDVRRALYASKLVAYAQGFDEIKAGSDENNWDVDPRDLATIWRGGCIIRAKFLNRIVEAYDANAELESLLLDPYFKSELGDLIDSWRRVIVTATQLGLPIPVFASSLSYYDSLRAERLPAALIQGQRDFFGAHTYKRIDKDGSFHTEWSGDRSEVEA
notes: full length, 484 residues (Met1-Ala484), C-terminal His6 (pET-30a), E. coli BL21(DE3)-T1R
Km [1]: 0.1628 ± 0.0095 mM | kcat [1]: 17.1 ± 0.282 s⁻¹ | kcat/Km [1]: 105000 M⁻¹ s⁻¹ | Km [2]: 0.3408 ± 0.03 mM | kcat [2]: 19 ± 0.452 s⁻¹ | kcat/Km [2]: 55700 M⁻¹ s⁻¹
